Here are results for three molecules from patent publication US20220017622A1 (Pfizer, published 2022).

The target in test [1] is T1, cyno CD3 (delta/epsilon heterodimer) (cyno, UniProt Q95LI5 22-117; Q95LI8 22-105).
T1 construct: also called cyCD3
The test can be described thus: SPR 25 C; CD3 delta/epsilon on anti-His chip, bispecific analyte.

The target of test [2] is T2, human CD3 (delta/epsilon heterodimer) (human, UniProt P07766 23-126; P04234 22-105).
T2 construct: captured on an anti-His chip, so it carries a His tag; also called huCD3
Described as above.

Test [3] has as its target T3, cyno B7-H4 extracellular domain (cyno, UniProt Q7Z7D3 29-258 (human entry)).
T3 construct: Soluble ECD used as SPR analyte; also called cyB7-H4 ECD; cyB7-H4
T3 sequence: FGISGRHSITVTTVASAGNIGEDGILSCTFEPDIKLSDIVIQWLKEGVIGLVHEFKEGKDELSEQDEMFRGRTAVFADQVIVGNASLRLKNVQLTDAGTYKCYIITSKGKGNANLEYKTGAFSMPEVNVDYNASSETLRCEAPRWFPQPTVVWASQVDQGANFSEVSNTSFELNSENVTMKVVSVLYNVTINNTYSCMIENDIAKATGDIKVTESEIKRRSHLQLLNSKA
Nature of the test: SPR 25 C; bispecific on anti-hFc chip, ECD analyte.

Test [4] has as its target T4, human B7-H4 extracellular domain (human, UniProt Q7Z7D3 29-258).
T4 construct: Soluble ECD used as SPR analyte; also called huB7-H4 ECD; huB7-H4
T4 sequence: T3 sequence with I49L
The test can be described thus: SPR 25 C; bispecific on anti-hFc chip, ECD analyte.

The target in test [5] is T5, mouse B7-H4 extracellular domain (mouse, UniProt Q7TSP5 29-258).
T5 construct: Soluble ECD used as SPR analyte; also called muB7-H4 ECD; muB7-H4
T5 sequence: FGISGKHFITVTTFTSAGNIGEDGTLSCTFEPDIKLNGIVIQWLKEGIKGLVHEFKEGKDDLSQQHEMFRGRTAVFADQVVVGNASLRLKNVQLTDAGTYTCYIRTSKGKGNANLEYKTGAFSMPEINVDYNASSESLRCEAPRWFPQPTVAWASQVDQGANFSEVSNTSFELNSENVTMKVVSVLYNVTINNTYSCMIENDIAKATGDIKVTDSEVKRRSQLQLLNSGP
Nature of the test: SPR 25 C; bispecific on anti-hFc chip, ECD analyte.

Test [6] has as its target T3, cyno B7-H4 extracellular domain. Nature of the test: SPR 37 C; bispecific on anti-hFc chip, ECD analyte.
For test [7], the target named is T4, human B7-H4 extracellular domain. Nature of the test: SPR 37 C; bispecific on anti-hFc chip, ECD analyte.
A further test has as its target T6, human B7-H4 on cells (human, UniProt Q7Z7D3 25-282).
T6 sequence (looked up): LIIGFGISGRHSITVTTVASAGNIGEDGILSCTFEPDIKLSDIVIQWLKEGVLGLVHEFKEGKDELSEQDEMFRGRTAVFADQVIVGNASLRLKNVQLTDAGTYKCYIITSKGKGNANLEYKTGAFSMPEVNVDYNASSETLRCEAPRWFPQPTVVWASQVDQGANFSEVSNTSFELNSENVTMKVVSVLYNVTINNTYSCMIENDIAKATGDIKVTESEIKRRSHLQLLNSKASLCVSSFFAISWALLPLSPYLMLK
The test can be described thus: cell-based or functional assay.

For test [8], the target named is T7, human B7-H4 on human tumor cell lines (human, UniProt Q7Z7D3 25-282).
T7 sequence (looked up): T6 sequence (looked up)
Nature of the test: cell-based or functional assay.

The target in test [9] is T4, human B7-H4 extracellular domain. The test can be described thus: SPR 37 C; IgG1 on anti-hFc chip, ECD analyte.
For test [10], the target named is T3, cyno B7-H4 extracellular domain. The test can be described thus: SPR 37 C; IgG1 on anti-hFc chip, ECD analyte.
Test [11] has as its target T5, mouse B7-H4 extracellular domain. Nature of the test: SPR 37 C; IgG1 on anti-hFc chip, ECD analyte.

As usually defined, the Kd is the free concentration of one partner at which half of the binding sites on the other are occupied at equilibrium, for simple one-to-one binding. Broadly, the koff is a measure of how fast the partners let go of each other. One may read the kon as the second-order rate constant of association. The low end stands for slow association, the high end for fast association.

Numbering of substitutions follows the chain as printed.

T2 sequence (P07766 23-126, stated change not applied, chain 1 of 2): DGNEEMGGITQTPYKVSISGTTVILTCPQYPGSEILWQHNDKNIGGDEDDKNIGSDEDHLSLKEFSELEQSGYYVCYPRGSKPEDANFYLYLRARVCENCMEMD
T2 sequence (P04234 22-105, stated change not applied, chain 2 of 2): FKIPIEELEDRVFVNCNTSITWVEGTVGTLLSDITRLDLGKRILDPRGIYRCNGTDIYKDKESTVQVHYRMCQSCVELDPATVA
T1 sequence (Q95LI5 22-117, stated change not applied, chain 1 of 2): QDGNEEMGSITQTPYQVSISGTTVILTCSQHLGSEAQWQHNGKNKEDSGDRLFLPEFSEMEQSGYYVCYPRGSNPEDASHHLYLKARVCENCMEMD
T1 sequence (Q95LI8 22-105, stated change not applied, chain 2 of 2): as the sequence (P04234 22-105, stated change not applied, chain 2 of 2) above, with I5V, N15K, I20V, S32T, D33N, I34N, T64A, S74N, V83L counted along it

B1: B7-H4xCD3 bispecific antibody 0080 (bispecific antibody, IgG2)
heavy 1: QVQLQQWGAGLLKPSETLPLTCAVYGGSFSGYYWNWIRQPPGKGLEWIGEINHSGSATYNPSLKSRVTISVDTSKNHFSLKLSSVTAADTAVYFCARGLYNWNVDHWGQGTLVTVSSASTKGPSVFPLAPCSRSTSESTAALGCLVKDYFPEPVTVSWNSGALTSGVHTFPAVLQSSGLYSLSSVVTVPSSNFGTQTYTCNVDHKPSNTKVDKTVERKCEVECPECPAPPVAGPSVFLFPPKPKDTLMISRTPEVTCVVVAVSHEDPEVQFNWYVDGVEVHNAKTKPREEQFNSTFRVVSVLTVVHQDWLNGKEYKCKVSNKGLPSSIEKTISKTKGQPREPQVYTLPPSREEMTKNQVSLTCEVKGFYPSDIAVEWESNGQPENNYKTTPPMLDSDGSFFLYSKLTVDKSRWQQGNVFSCSVMHEALHNHYTQKSLSLSPGK
light 1: DIQMTQSPSSLSASVGDRVTITCRASQGIRNDLGWYQQKPGKAPKRLIYAASSLQSGVPSRFSGSGSGTEFTLTISSLQPEDFATYYCLQHNSYPRTFGGGTKVEIKRTVAAPSVFIFPPSDEQLKSGTASVVCLLNNFYPREAKVQWKVDNALQSGNSQESVTEQDSKDSTYSLSSTLTLSKADYEKHKVYACEVTHQGLSSPVTKSFNRGEC
heavy 2: EVQLVESGGGLVQPGGSLRLSCAASGFTFSDYYMTWVRQAPGKGLEWVAFIRNQARGYTSDHNPSVKGRFTISRDNAKNSLYLQMNSLRAEDTAVYYCARDRPSYYVLDYWGQGTTVTVSSASTKGPSVFPLAPCSRSTSESTAALGCLVKDYFPEPVTVSWNSGALTSGVHTFPAVLQSSGLYSLSSVVTVPSSNFGTQTYTCNVDHKPSNTKVDKTVERKCRVRCPRCPAPPVAGPSVFLFPPKPKDTLMISRTPEVTCVVVAVSHEDPEVQFNWYVDGVEVHNAKTKPREEQFNSTFRVVSVLTVVHQDWLNGKEYKCKVSNKGLPSSIEKTISKTKGQPREPQVYTLPPSREEMTKNQVSLTCLVKGFYPSDIAVEWESNGQPENNYKTTPPMLDSDGSFFLYSRLTVDKSRWQQGNVFSCSVMHEALHNHYTQKSLSLSPGK
light 2: DIQMTQSPSSLSASVGDRVTITCTSSQSLFNVRSQKNYLAWYQQKPGKAPKLLIYWASTRESGVPSRFSGSGSGTDFTLTISSLQPEDFATYYCKQSYDLFTFGGGTKVEIKRTVAAPSVFIFPPSDEQLKSGTASVVCLLNNFYPREAKVQWKVDNALQSGNSQESVTEQDSKDSTYSLSSTLTLSKADYEKHKVYACEVTHQGLSSPVTKSFNRGEC
notes: Chains 1-2: B7-H4 arm; chains 3-4: CD3 arm; IgG2 EEE/RRR; also called anti-B7-H4 clone 7H7
For the molecule B1, the Kd in test [1] was determined as 13.3 nM; in test [2], 12.7 nM; in test [3] it was 4.29 nM; in test [4] it was 2.39 nM; in test [5] it was 74.8 nM; in test [6], 12.8 nM. Also, binding in test [7] was characterised by a dissociation constant (Kd) of 6.08 nM. In addition, the koff in test [1] is 0.00493 s⁻¹; in [2], 0.00521 s⁻¹; in test [3] it was 0.000676 s⁻¹; in test [4], 0.000692 s⁻¹; in test [5], 0.0138 s⁻¹; in test [6], 0.00282 s⁻¹. This molecule displayed a koff in test [7] of 0.00283 s⁻¹. In addition, the kon in test [1] was determined as 372000 M⁻¹ s⁻¹; in [2], 411000 M⁻¹ s⁻¹; in test [3] it was 157000 M⁻¹ s⁻¹; in [4], 296000 M⁻¹ s⁻¹; in [5], 189000 M⁻¹ s⁻¹; in test [6], 220000 M⁻¹ s⁻¹. The kon in test [7] was found to be 465000 M⁻¹ s⁻¹. Also, in the test with human B7-H4 on cells, the “T cell mediated tumor cell killing EC50, HCC1954-Luc” value is 36 nM.

B2: B7-H4xCD3 bispecific antibody 1167 (bispecific antibody, IgG2)
heavy 1: EVQLLESGGGLVQPGGSLRLSCAASGFTFSSYAMSWVRQAPGKGLEWVSAISGGGGSTYYADSVKGRFTISRDNSKNTLYLQMNSLRAEDTAVYYCARDIQWYGESTLFDYWGQGTLVTVSSASTKGPSVFPLAPCSRSTSESTAALGCLVKDYFPEPVTVSWNSGALTSGVHTFPAVLQSSGLYSLSSVVTVPSSNFGTQTYTCNVDHKPSNTKVDKTVERKCEVECPECPAPPVAGPSVFLFPPKPKDTLMISRTPEVTCVVVAVSHEDPEVQFNWYVDGVEVHNAKTKPREEQFNSTFRVVSVLTVVHQDWLNGKEYKCKVSNKGLPSSIEKTISKTKGQPREPQVYTLPPSREEMTKNQVSLTCEVKGFYPSDIAVEWESNGQPENNYKTTPPMLDSDGSFFLYSKLTVDKSRWQQGNVFSCSVMHEALHNHYTQKSLSLSPGK
light 1: DIQMTQSPSSLSASVGDRVTITCRASQSTRSHLAWYQQKPGKAPKLLIYKASSLEGGVPSRFSGSGSGTDFTLTISSLQPEDFATYYCQQYGSYSRTFGQGTKVEIKRTVAAPSVFIFPPSDEQLKSGTASVVCLLNNFYPREAKVQWKVDNALQSGNSQESVTEQDSKDSTYSLSSTLTLSKADYEKHKVYACEVTHQGLSSPVTKSFNRGEC
heavy 2: B1 heavy 2
light 2: B1 light 2
As to B2, in test [8], the “EC50 (nM) of Antibody 1167 in inducing redirected T cell killing in vitro, HCC1954 cells (B7-H4 density 20039 per cell)” value was determined as 0.8 nM; the “EC50 (nM) of Antibody 1167 in inducing redirected T cell killing in vitro, MDA-MB-453 cells (B7-H4 density 1198 per cell)” value came to 8.44 nM; the “EC50 (nM) of Antibody 1167 in inducing redirected T cell killing in vitro, MDA-MB-468 cells (B7-H4 density 83936 per cell)” value was 0.4 nM; the “EC50 (nM) of Antibody 1167 in inducing redirected T cell killing in vitro, MX1 cells (B7-H4 density 108684 per cell)” value came to 0.062 nM. In [8], the “EC50 (nM) of Antibody 1167 in inducing redirected T cell killing in vitro, T47D cells (B7-H4 density 6133 per cell)” value was 0.54 nM.

B3: B7-H4 antibody 0052 (antibody, human IgG1, kappa, V domains shown)
VH: QVQLQQWGAGLLKPSETLSLTCAVYGGSFSGYYWNWIRQPPGKGLEWIGEINHSGSTKYNPSLKSRVTISGDTSKNQFSLKLNSVTAADTAVYYCVRGLYNWNVDSWGQGTLVTVSS
VL: DIQMTQSPSSLSASVGDRVTITCRASQGIRNDLGWYQQKPGKAPKRLIYVASSLQSGVPSRFSGSGSGTEFTLTISSLQPEDFATYYCLQHNSYPYTFGQGTKLEIKR
notes: IgG1 mAb format; parental; also called 28D10
Regarding B3, the results for the Kd in test [9], in test [10] and in test [11] were 12.1 nM, 30.7 nM and 883 nM, respectively. The koff in test [9] is 0.00565 s⁻¹; in test [10], 0.00424 s⁻¹; in test [11], 0.126 s⁻¹. In addition, the kon in [9] was found to be 467000 M⁻¹ s⁻¹; in [10], 139000 M⁻¹ s⁻¹; in test [11] it was 143000 M⁻¹ s⁻¹.
